# From publication doi:10.1101/2022.07.22.500997 (bioRxiv, 2022)
# What was measured:
# [1] = target: Dg_(GH172a) (HMPREF9455_02467), DUF2961 / GH172 exo-D-arabinofuranosidase from Dysgonomonas gadei (Dysgonomonas gadei) (UniProt F5IZF0); experiment: SEC-MALS
# [2] = target: Dg_(GH172b) (HMPREF9455_02471), DUF2961 / GH172 exo-D-arabinofuranosidase from Dysgonomonas gadei (Dysgonomonas gadei) (UniProt F5IZF4); experiment: SEC-MALS
# [3] = target: Dg_(GH172c) (HMPREF9455_02479), DUF2961 / GH172 exo-D-arabinofuranosidase from Dysgonomonas gadei (Dysgonomonas gadei) (UniProt F5IZG2); experiment: SEC-MALS
# [4] = target: Dg_(GH172c) (HMPREF9455_02479), DUF2961 / GH172 exo-D-arabinofuranosidase from Dysgonomonas gadei (Dysgonomonas gadei) (UniProt F5IZG2); experiment: crystal structure
# [5] = target: Myc_(GH172) (GII36_05205), DUF2961 / GH172 enzyme from Candidatus Mycosynbacter amalyticus (Candidatus Mycosynbacter amalyticus); experiment: SEC-MALS
# SEC-MALS = target: the molecule itself; experiment: SEC-MALS
molecule,measurement,setting,value
"Dg_(GH172a) (HMPREF9455_02467), DUF2961 / GH172 exo-D-arabinofuranosidase from Dysgonomonas gadei (from UniProt F5IZF0 1-386) (enzyme)",stoichiometry N,[1],12
"Dg_(GH172b) (HMPREF9455_02471), DUF2961 / GH172 exo-D-arabinofuranosidase from Dysgonomonas gadei (from UniProt F5IZF4 1-643) (enzyme)",stoichiometry N,[2],2
"Dg_(GH172c) (HMPREF9455_02479), DUF2961 / GH172 exo-D-arabinofuranosidase from Dysgonomonas gadei (from UniProt F5IZG2 1-402) (enzyme)",stoichiometry N,[3],6
same,stoichiometry N,[4],6
"Myc_(GH172) (GII36_05205), DUF2961 / GH172 enzyme from Candidatus Mycosynbacter amalyticus",stoichiometry N,[5],3
"Noc_(GH172) (O3I_017420), DUF2961 / GH172 enzyme from Nocardia brasiliensis (enzyme) MTPPRRSELWLLDDTRTRSVSAENPTGAPGGGARATTGTGAHAARLLGPGWKISPSIVLGDGETATLADVSGPGVLRHCWLTTDRAALRELTLRMYWDDAAEPAIDVPLGDFFCNGWDELALVDSEMVVVAPAGGLNSYWPMPFRRRARITLENHCGRSVPVYYQITYGEEDVPGEAGYLHARWSRSAPLGSPAVHTLLDTGPARGRYVGTYLAIRPGAPRWWGEGEMKFYLDGDDEYPTLCGTGTEDYFGGAWNFDMDGKYRTYSTAYLGLPQALPADEIYQAHQRFGMYRWHVHDPICFHRELRVTVQGLGWRDSDTYLPLEDAEIATTVWWYQEVPPSG",stoichiometry N,SEC-MALS,3
